Measurements reported in PMC4337721, “Noncanonical binding of BiP ATPase domain to Ire1 and Perk is dissociated by unfolded protein CH1 to initiate ER stress signaling” (eLife, 2015).
Several values for one entry are separate records, joined by “and”; a condition that tells them apart may be missing. Equal entries are not always repeated.

B1: BiP ATPase domain (residues 28–405), His6-tag removed (domain or fragment)
chain: not shown
notes: BiP, human, ATPase domain, residues 28-405; also called BiP's ATPase domain; source: E. coli BL21 (DE3), purified (Co2+-NTA, anion exchange, SEC); not shown: His6, N-terminal, cleaved
B2: Perk luminal domain, complete (region I–V, residues 54–509) (domain or fragment, human, UniProt Q9NZJ5 54-509, looked up)
chain: TSATRVPAAGAVAAAEVTVEDAEALPAAAGEQEPRGPEPDDETELRPRGRSLVIISTLDGRIAALDPENHGKKQWDLDVGSGSLVSSSLSKPEVFGNKMIIPSLDGALFQWDQDRESMETVPFTVESLLESSYKFGDDVVLVGGKSLTTYGLSAYSGKVRYICSALGCRQWDSDEMEQEEDILLLQRTQKTVRAVGPRSGNEKWNFSVGHFELRYIPDMETRAGFIESTFKPNENTEESKIISDVEEQEAAIMDIVIKVSVADWKVMAFSKKGGHLEWEYQFCTPIASAWLLKDGKVIPISLFDDTSYTSNDDVLEDEEDIVEAARGATENSVYLGMYRGQLYLQSSVRISEKFPSSPKALESVTNENAIIPLPTIKWKPLIHSPSRTPVLVGSDEFDKCLSNDKFSHEEYSNGALSILQYPYDNGYYLPYYKRERNKRSTQITVRFLDNPHYNKN
notes: Perk, human, luminal domain regions I-V, residues 54-509; see recheck on the SEC MALS mass; also called Perk I–V; Perk LD; source: E. coli BL21 (DE3), purified (Co2+-NTA, anion exchange, SEC); not shown: His6, N-terminal, cleaved
B3: Ire1 luminal domain region I–IV (residues 24–390) (domain or fragment, human, UniProt O75460 24-390, looked up)
chain: STVTLPETLLFVSTLDGSLHAVSKRTGSIKWTLKEDPVLQVPTHVEEPAFLPDPNDGSLYTLGSKNNEGLTKLPFTIPELVQASPCRSSDGILYMGKKQDIWYVIDLLTGEKQQTLSSAFADSLCPSTSLLYLGRTEYTITMYDTKTRELRWNATYFDYAASLPEDDVDYKMSHFVSNGDGLVVTVDSESGDVLWIQNYASPVVAFYVWQREGLRKVMHINVAVETLRYLTFMSGEVGRITKWKYPFPKETEAKSKLTPTLYVGKYSTSLYASPSMVHEGVAVVPRGSTLPLLEGPQTDGVTIGDKGECVITPSTDVKFDPGLKSKNKLNYLRNYWLLIGHHETPLSASTKMLERFPNNLPKHRENV
notes: Ire1, human, luminal domain regions I-IV, residues 24-390; also called Ire1 I–IV; source: E. coli BL21 (DE3), purified (Co2+-NTA, anion exchange, SEC); not shown: His6, N-terminal, cleaved
B4: Perk luminal domain region I–IV (residues 54–403) (domain or fragment, human, UniProt Q9NZJ5 54-403, looked up)
chain: TSATRVPAAGAVAAAEVTVEDAEALPAAAGEQEPRGPEPDDETELRPRGRSLVIISTLDGRIAALDPENHGKKQWDLDVGSGSLVSSSLSKPEVFGNKMIIPSLDGALFQWDQDRESMETVPFTVESLLESSYKFGDDVVLVGGKSLTTYGLSAYSGKVRYICSALGCRQWDSDEMEQEEDILLLQRTQKTVRAVGPRSGNEKWNFSVGHFELRYIPDMETRAGFIESTFKPNENTEESKIISDVEEQEAAIMDIVIKVSVADWKVMAFSKKGGHLEWEYQFCTPIASAWLLKDGKVIPISLFDDTSYTSNDDVLEDEEDIVEAARGATENSVYLGMYRGQLYLQSSVRI
notes: Perk, human, luminal domain regions I-IV, residues 54-403; also called Perk I–IV; source: E. coli BL21 (DE3), purified (Co2+-NTA, anion exchange, SEC); not shown: His6, N-terminal, cleaved
B5: His6-tagged BiP ATPase domain (residues 28–405) (domain or fragment)
chain: not shown
notes: BiP, human, ATPase domain, residues 28-405; also called His6-tagged BiP ATPase domain protein; source: E. coli BL21 (DE3), purified (Co2+-NTA, anion exchange, SEC); not shown: His6, N-terminal, kept
B6: unfolded protein CH1 (immunoglobulin constant heavy chain domain) (domain or fragment)
chain: not shown
notes: immunoglobulin constant heavy chain domain CH1, intrinsically unfolded without CL; also called CH1 substrate; source: expressed as previously described (Marcinowski et al., 2011)
B7: Ire1 luminal domain region II–IV (residues 32–390) (domain or fragment, human, UniProt O75460 32-390, looked up)
chain: LLFVSTLDGSLHAVSKRTGSIKWTLKEDPVLQVPTHVEEPAFLPDPNDGSLYTLGSKNNEGLTKLPFTIPELVQASPCRSSDGILYMGKKQDIWYVIDLLTGEKQQTLSSAFADSLCPSTSLLYLGRTEYTITMYDTKTRELRWNATYFDYAASLPEDDVDYKMSHFVSNGDGLVVTVDSESGDVLWIQNYASPVVAFYVWQREGLRKVMHINVAVETLRYLTFMSGEVGRITKWKYPFPKETEAKSKLTPTLYVGKYSTSLYASPSMVHEGVAVVPRGSTLPLLEGPQTDGVTIGDKGECVITPSTDVKFDPGLKSKNKLNYLRNYWLLIGHHETPLSASTKMLERFPNNLPKHRENV
notes: Ire1, human, luminal domain regions II-IV, residues 32-390; With cross linker it forms dimer and tetramer species; also called Ire1 II–IV; Ire1 LD for cross-link experiment; source: E. coli BL21 (DE3), purified (Co2+-NTA, anion exchange, SEC); not shown: His6, N-terminal, cleaved
B8: Ire1 luminal domain, complete (region I–V, residues 24–440) (domain or fragment, human, UniProt O75460 24-440, looked up)
chain: STVTLPETLLFVSTLDGSLHAVSKRTGSIKWTLKEDPVLQVPTHVEEPAFLPDPNDGSLYTLGSKNNEGLTKLPFTIPELVQASPCRSSDGILYMGKKQDIWYVIDLLTGEKQQTLSSAFADSLCPSTSLLYLGRTEYTITMYDTKTRELRWNATYFDYAASLPEDDVDYKMSHFVSNGDGLVVTVDSESGDVLWIQNYASPVVAFYVWQREGLRKVMHINVAVETLRYLTFMSGEVGRITKWKYPFPKETEAKSKLTPTLYVGKYSTSLYASPSMVHEGVAVVPRGSTLPLLEGPQTDGVTIGDKGECVITPSTDVKFDPGLKSKNKLNYLRNYWLLIGHHETPLSASTKMLERFPNNLPKHRENVIPADSEKKSFEEVINLVDQTSENAPTTVSRDVEEKPAHAPARPEAPVDSM
notes: Ire1, human, luminal domain regions I-V, residues 24-440; also called Ire1 I–V; Ire1 LD; source: E. coli BL21 (DE3), purified (Co2+-NTA, anion exchange, SEC); not shown: His6, N-terminal, cleaved

Experiments:
[1] = target: B8; assay: MST; Monolith NT.115; buffer B (50 mM HEPES pH 7.5, 75 mM NaCl, 10% glycerol, 1 mM TCEP), no nucleotide; one partner labelled (Red-NHS) at 50 nM, sixteen twofold dilutions of the unlabelled partner (which was labelled is not told); 25°C; three independent experiments averaged; conditions: both partners purified
[2] = target: B2; assay: as above; conditions: both partners purified
SEC-MALS = target: the molecule itself; assay: SEC-MALS
[3] = target: T1, ΔEspP, yeast Ire1-specific unfolded peptide mimic; assay: ITC; conditions: both partners purified
T1 construct: also called unfolded protein peptide mimic; source: bought: AltaBiosciences

[4] = target: T2, full-length BiP (BiP FL, residues 28–654), His6-tag removed (human, UniProt P11021 28-654); assay: MST; Monolith NT.115; buffer B (50 mM HEPES pH 7.5, 75 mM NaCl, 10% glycerol, 1 mM TCEP), no nucleotide; one partner labelled (Red-NHS) at 50 nM, sixteen twofold dilutions of the unlabelled partner (which was labelled is not told); 25°C; three independent experiments averaged; conditions: both partners purified
T2 construct: BiP (ER Hsp70 chaperone), human, residues 28-654; In MST one partner carried the Red-NHS label; also called ER Hsp70 chaperone; source: E. coli BL21 (DE3), purified (Co2+-NTA, anion exchange, SEC); not shown: His6, N-terminal, cleaved
T2 sequence (P11021 28-654): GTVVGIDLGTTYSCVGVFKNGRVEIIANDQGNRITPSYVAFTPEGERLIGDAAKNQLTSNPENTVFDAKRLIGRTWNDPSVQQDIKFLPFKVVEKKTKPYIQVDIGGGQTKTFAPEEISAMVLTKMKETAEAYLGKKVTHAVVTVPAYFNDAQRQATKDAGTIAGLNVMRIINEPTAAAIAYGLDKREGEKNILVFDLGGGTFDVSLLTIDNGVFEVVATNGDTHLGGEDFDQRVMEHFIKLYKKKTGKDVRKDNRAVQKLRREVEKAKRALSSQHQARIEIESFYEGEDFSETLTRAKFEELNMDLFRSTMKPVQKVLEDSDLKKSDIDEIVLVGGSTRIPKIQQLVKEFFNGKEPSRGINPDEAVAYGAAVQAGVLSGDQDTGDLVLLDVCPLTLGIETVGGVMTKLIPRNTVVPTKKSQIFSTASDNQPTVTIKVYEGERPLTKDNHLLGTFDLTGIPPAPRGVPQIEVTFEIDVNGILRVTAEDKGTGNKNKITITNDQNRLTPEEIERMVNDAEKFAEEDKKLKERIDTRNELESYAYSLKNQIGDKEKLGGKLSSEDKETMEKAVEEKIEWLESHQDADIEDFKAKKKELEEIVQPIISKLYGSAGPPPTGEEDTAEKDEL

[5] = target: B1; assay: as above; conditions: both partners purified
[6] = target: B7; assay: cross-linking; EGS, 50-fold molar excess, 1 hr; proteins at 50 μM in 50 mM Hepes pH 8.0, 50 mM NaCl, 5% glycerol, 5 mM DTT; alone or in 1:1 molar mixture; SDS-PAGE and anti-His6 blot; conditions: both partners purified
[7] = target: T3, BiP substrate binding domain (residues 422–654), His6-tag removed (human, UniProt P11021 422-654); assay: MST; Monolith NT.115; buffer B (50 mM HEPES pH 7.5, 75 mM NaCl, 10% glycerol, 1 mM TCEP), no nucleotide; one partner labelled (Red-NHS) at 50 nM, sixteen twofold dilutions of the unlabelled partner (which was labelled is not told); 25°C; three independent experiments averaged; conditions: both partners purified
T3 construct: also called BiP SBD; source: E. coli BL21 (DE3), purified (Co2+-NTA, anion exchange, SEC); not shown: His6, N-terminal, cleaved
T3 sequence (P11021 422-654): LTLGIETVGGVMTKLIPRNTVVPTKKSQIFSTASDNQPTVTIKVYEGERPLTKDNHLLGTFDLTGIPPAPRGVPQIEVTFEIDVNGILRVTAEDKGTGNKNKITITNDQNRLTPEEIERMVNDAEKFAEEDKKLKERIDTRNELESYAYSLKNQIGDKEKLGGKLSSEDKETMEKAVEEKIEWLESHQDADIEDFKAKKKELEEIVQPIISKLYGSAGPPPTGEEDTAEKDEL

[8] = target: the molecule itself; assay: cross-linking; EGS, 50-fold molar excess, 1 hr; proteins at 50 μM in 50 mM Hepes pH 8.0, 50 mM NaCl, 5% glycerol, 5 mM DTT; alone or in 1:1 molar mixture; SDS-PAGE and anti-His6 blot

Question: Which results are given for B1?
Answer: Kd [1]: 1.97 µM; Kd [2]: 2.05 µM

Question: Which results are given for B2?
Answer: stoichiometry N (SEC-MALS): 2; Kd [3]: 9.3 µM; Kd [4]: 1.92 µM

Question: Does B3 bind [5]?
Answer: binds

Question: Does B4 bind [5]?
Answer: binds

Question: Which “stoichiometry N” value [6] does the source give for B5 here?
Answer: 1 1:1 and 2 2:1 (which of the two stands twice is not said)

Question: Which results are given for B6?
Answer: Kd [4]: 8.7 µM; Kd [7]: 5.1 µM

Question: Which “stoichiometry N” value [8] does the source give for B7 here?
Answer: 2 and 4

Question: Does B7 bind [5]?
Answer: binds

Question: Which results are given for B8?
Answer: stoichiometry N (SEC-MALS): 2; Kd [3]: 6.4 µM; Kd [4]: 1.33 µM
